Experimental data published in patent US20260108608A1 (GC CELL, published 2026).

Biological target: T1, CD5 on CD5-positive tumor cell lines (CCRF-CEM, RPMI-8402_Luc / RPMI-8402-Luciferase, RPMI-8402) (human, UniProt P06127 25-495)
T1 sequence (looked up): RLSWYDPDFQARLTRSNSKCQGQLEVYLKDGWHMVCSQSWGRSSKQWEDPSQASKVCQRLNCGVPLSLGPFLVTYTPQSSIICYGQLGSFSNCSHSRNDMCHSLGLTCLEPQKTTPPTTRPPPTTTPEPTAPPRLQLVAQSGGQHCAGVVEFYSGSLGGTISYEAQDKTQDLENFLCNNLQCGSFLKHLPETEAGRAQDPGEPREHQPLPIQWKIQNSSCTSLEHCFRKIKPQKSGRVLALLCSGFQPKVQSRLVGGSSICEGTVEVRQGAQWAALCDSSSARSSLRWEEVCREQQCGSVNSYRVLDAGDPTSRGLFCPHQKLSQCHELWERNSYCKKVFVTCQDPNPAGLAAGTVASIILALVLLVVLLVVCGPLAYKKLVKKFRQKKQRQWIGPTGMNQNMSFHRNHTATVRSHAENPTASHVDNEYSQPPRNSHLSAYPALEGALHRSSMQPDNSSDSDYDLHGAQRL
Test: cell-based or functional assay

B1: CD5 CAR (fourth generation), chimeric antigen receptor with anti-CD5 scFv, expressed on cord blood-derived NK cells (receptor)
chain: EIQLVQSGGGLVKPGGSVRISCAASGYTFTNYGMNWVRQAPGKGLEWMGWINTHTGEPTYADSFKGRFTFSLDDSKNTAYLQINSLRAEDTAVYFCTRRGYDWYFDVWGQGTTVTVSSGGGGSGGGGSGGGGSDIQMTQSPSSLSASVGDRVTITCRASQDINSYLSWFQQKPGKAPKTLIYRANRLESGVPSRFSGSGSGTDYTLTISSLQYEDFGIYYCQQYDESPWTFGGGTKLEIKAKPTTTPAPRPPTPAPTIASQPLSLRPEACRPAAGGAVHTRGLDFACDFWVLVVVGGVLACYSLLVTVAFIIFWVRSKRSRLLHSDYMNMTPRRPGPTRKHYQPYAPPRDFAAYRSERVQPLEENVGNAARPRFERNKRVKFSRSADAPAYQQGQNQLYNELNLGRREEYDVLDKRRGRDPEMGGKPRRKNPQEGLYNELQKDKMAEAYSEIGMKGERRRGKGHDGLYQGLSTATKDTYDALHMQALPPR
  expression of CD107a and cytokines (IFN-γ and TNF-α) in NK cells co-cultured with CCRF-CEM and RPMI-8402_Luc, CD5 CAR-NK against CBNK: ≥ 2 fold
